Data reported in patent US6497872B1, “Neural transplantation using proliferated multipotent neural stem cells and their progeny” (NeuroSpheres Holdings Ltd., priority 1991, dated 2002).

Experiments:
[1] = test system: EGF-generated neurospheres; assay: Effect of growth factors on neurosphere differentiation, immunocytochemistry (Example 8); assay type: cell-based, mouse; settings: paradigm 3; BDNF
Description: Six to 8 days after the first passage, the neurospheres were removed and centrifuged at 400 r.p.m. The EGF-containing supernatant was removed and the pellet suspended in EGF-free complete medium containing 1% FBS. Neurospheres (approximately 0.5-1.0×10^6 cells/well) were plated on poly-L-ornithine-coated (15 μg/ml) glass coverslips in 24 well Nuclon (1.0 ml/well) culture dishes. After 24 hours in culture, the coverslips were transferred to 12 well (Costar) culture dishes containing complete medium containing 0.5% FBS. The medium was changed every 4-7 days. This differentiation procedure is referred to as the “Rapid Differentiation Paradigm” or RDP.
Six to 8 days after the first passage, the neurospheres were removed and centrifuged at 400 r.p.m. The EGF-containing media was removed and the pellet was suspended in EGF-free complete medium containing 1% FBS. The neurospheres were mechanically dissociated into single cells with a fire-polished Pasteur pipette and centrifuged at 800 r.p.m. for 5 minutes. Between 0.5×10^6 and 1.0×10^6 cells were plated on poly-L-ornithine-coated (15 μg/ml) glass coverslips in 24 well Nuclon (1.0 ml/well) culture dishes. The EGF-free culture medium containing 1% FBS was changed every 4-7 days.
Neurospheres were washed free of EGF by serial transfers through changes of EGF-free medium. A single neurosphere was plated onto poly-L-ornithine-coated (15 μg/ml) glass coverslips in a 24-well plate. The culture medium used was complete medium with or without I % FBS. The medium was changed every 4-7 days.
Neurospheres were washed free of EGF by serial transfers through changes of EGF-free medium. A single neurosphere was mechanically dissociated in a 0.5 ml Eppendorf centrifuge tube and all the cells were plated onto a 35 mm culture dish. Complete medium was used with or without 1% FBS.
The effects of CNTF, FGF-2, BDNF, and retinoic acid on neurosphere differentiation were tested using the differentiation paradigms set forth in Example 7.
The effect of CNTF was assayed in paradigms 1 and 3. For both paradigms, CNTF was added either at the beginning of the experiment at a concentration of 10 ng/ml or daily at a concentration of 1 ng/ml.
Three different antibodies directed against 04, galactocerebroside (GalC) and MBP were used to study the effect of CNTF on the oligodendrocytes of paradigm 1. CNTF had no effect on the number of 04(+) cells, but there was an increase in the number of GalC(+) and MBP(+) cells compared with the control. Thus it appears that CNTF plays a role in the maturation of oligodendrocytes.
The effect of FGF-2 was tested using paradigms 2 and 4. In paradigm 2, 20 ng/ml of FGF-2 was added at the beginning of the experiment and cells were stained 7 days later. FGF-2 increased the number of GFAP(+) cells and the number of NSE(+) cells.
In paradigm 4, 20 ng/ml of FGF-2 was added at the beginning of the experiment and assayed 7-10 days later. […] It induced two different cell types to divide, neuroblasts and bipotential progenitor cells. The neuroblast produced, on average, 6 neurons while the bipotential cell produced approximately 6 neurons and a number of astrocytes.

[2] = test system: EGF-generated mouse neurospheres; assay: BDNF on single EGF-generated neurospheres (Example 12); assay type: cell-based; settings: 10 ng/ml; 14-28 days in vitro; preliminary experiments
Description: The expression of the trk family of neurotrophin receptors in EGF-generated neurospheres was examined by northern blot analysis. Total mRNA was isolated from mouse and rat striatal EGF-generated neurospheres. […] In preliminary experiments, single EGF-generated mouse neurospheres were plated on poly-L-ornithine coated glass coverslips and cultured in the absence or presence of 10 ng/ml of BDNF. […] Activation of the trkB receptor on EGF-generated neurospheres may enhance differentiation, survival of and/or neurite outgrowth from newly generated neurons.

[3] = test system: EGF-generated precursor cells; assay: Screening of BDNF on differentiation and survival of stem cell progeny (Example 37); assay type: cell-based, mouse
Description: Precursor cells were propagated as described in Example 4 and differentiated using Paradigm 3 described in Example 7. At the time of plating the EGF-generated cells, BDNF was added at a concentration of 10 ng/ml. At 3, 7, 14, and 21 days in vitro (DIV), cells were processed for indirect immunocytochemistry. BrdU labeling was used to monitor proliferation of the precursor cells. The effects of BDNF on neurons, oligodendrocytes and astrocytes were assayed by probing the cultures with antibodies that recognize antigens found on neurons (MAP-2, NSE, NF), oligodendrocytes (O4, GalC, MBP) or astrocytes (GFAP). Cell survival was determined by counting the number of immunoreactive cells at each time point and morphological observations were made.
Cells treated with BDNF according to the methods described in Part A were probed with antibodies that recognize neural transmitters or enzymes involved in the synthesis of neural transmitters. These included TH, ChAT, substance P, GABA, somatostatin, and glutamate. In both control and BDNF-treated culture conditions, neurons tested positive for the presence of substance P and GABA.
Cells that are responsive to growth factor treatment were identified by differentiating the EGF-generated progeny as described in Example 7, paradigm 3 and at 1 DIV adding approximately 100 ng/ml of BDNF. At 1, 3, 6, 12 and 24 hours after the addition of BDNF the cells were fixed and processed for dual label immunocytochemistry. Antibodies that recognize neurons (MAP-2, NSE, NF), oligodendrocytes (O4, GalC, MBP) or astrocytes (GFAP) were used in combination with an antibody that recognizes c-fos and/or other immediate early genes.

B1: BDNF: brain-derived neurotrophic factor (protein, UniProt P23560 19-247, looked up)
Neurotrophic factor BDNF …: APMKEANIRGQGGLAYPGVRTHGTLESVNGPKAGSRGLTSLADTFEHVIEELLDEDQKVRPNEENNKDADLYTSRVMLSSQVPLEPPLLFLLEEYKNYLDAANMSMRVRRHSDPARRGELSVCDSISEWVTAADKKTAVDMSGGTVTVLEKVPVSKGQLKQYFYETKCNPMGYTKEGCRGIDKRHWNSQCRTTQSYVRALTMDSKKRIGWRFIRIDTSCVCTLTIKRGR
neuronal branching and migration of the neurons away from the sphere [1]: increase
number of NSE(+) neurons per neurosphere [1]: increase
morphology of NSE(+) cells [2]: NSE(+) cells with extensive and highly branched processes
neurite extension and branching ([3]; 10 ng/ml): dramatic increase
Astrocyte and oligodendrocyte numbers versus control ([3]; 10 ng/ml, paradigm 3): not significantly altered
differentiation and survival of neurons versus control ([3]; 10 ng/ml, paradigm 3, 3-21 DIV): significantly increased
expression of c-fos ([3]; approximately 100 ng/ml at 1 DIV, 1-24 hours): selective increase in the expression of c-fos in neuronal cells
